Data set [1] addresses T1, HSV-1 DNA polymerase catalytic subunit UL30 (exonuclease proficient) (Herpes simplex virus 1, UniProt P04293 1-1235). The experiment in a line: competition.
Data set [2] deals with T1, HSV-1 DNA polymerase catalytic subunit …. Nature of the data set: competition. The source holds these as a separate data set.

Where two headings read alike, the source gives them in different places.

T1 sequence (P04293 whole entry): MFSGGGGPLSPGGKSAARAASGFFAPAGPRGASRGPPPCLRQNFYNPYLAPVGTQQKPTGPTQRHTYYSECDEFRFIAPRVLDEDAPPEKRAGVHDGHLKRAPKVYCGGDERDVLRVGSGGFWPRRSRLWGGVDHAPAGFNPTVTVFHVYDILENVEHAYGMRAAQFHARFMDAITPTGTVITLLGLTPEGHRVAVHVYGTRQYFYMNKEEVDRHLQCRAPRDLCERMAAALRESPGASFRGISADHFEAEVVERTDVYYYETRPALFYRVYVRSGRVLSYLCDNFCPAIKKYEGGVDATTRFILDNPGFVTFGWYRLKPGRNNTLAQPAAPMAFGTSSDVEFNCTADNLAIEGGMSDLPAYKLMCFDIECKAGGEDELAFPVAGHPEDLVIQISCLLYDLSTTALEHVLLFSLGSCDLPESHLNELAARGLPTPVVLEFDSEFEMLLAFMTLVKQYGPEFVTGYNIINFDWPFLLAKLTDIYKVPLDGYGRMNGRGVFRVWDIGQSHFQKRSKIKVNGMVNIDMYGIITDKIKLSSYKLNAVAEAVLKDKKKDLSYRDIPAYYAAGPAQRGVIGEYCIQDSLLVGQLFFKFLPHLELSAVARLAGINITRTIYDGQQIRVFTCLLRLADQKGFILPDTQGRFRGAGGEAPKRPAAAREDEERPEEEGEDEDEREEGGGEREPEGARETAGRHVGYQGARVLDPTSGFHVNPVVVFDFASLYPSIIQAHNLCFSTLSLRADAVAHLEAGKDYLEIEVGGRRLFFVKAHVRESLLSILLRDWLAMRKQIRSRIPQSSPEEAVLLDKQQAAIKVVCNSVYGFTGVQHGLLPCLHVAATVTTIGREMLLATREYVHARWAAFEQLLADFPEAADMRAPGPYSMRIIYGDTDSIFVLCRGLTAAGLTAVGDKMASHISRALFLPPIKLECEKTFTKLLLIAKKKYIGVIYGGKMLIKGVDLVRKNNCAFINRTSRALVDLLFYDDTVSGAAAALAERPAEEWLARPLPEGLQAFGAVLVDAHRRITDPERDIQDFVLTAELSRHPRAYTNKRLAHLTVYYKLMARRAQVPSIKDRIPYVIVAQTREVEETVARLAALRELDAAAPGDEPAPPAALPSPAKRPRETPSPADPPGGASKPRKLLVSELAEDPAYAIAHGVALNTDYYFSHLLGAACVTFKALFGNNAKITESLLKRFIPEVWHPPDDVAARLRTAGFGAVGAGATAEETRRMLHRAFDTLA

B1: DNA16ACV (dsDNA)
DNA 1: GCTCTGTTCCGGTTTG
DNA 2: CATGATTAGATGAAACACAAACCGGAACAGAGC
modifications: acyclovir monophosphate (acyclic G) at 3' end of primer, position 16 (printed A*)
Turning to B1, the binding result in data set [1] is listed as “binds”.

B2: DNA16GCV (dsDNA)
DNA 1: GCTCTGTTCCGGTTTG
DNA 2: B1 DNA 2
modifications: ganciclovir monophosphate (acyclic G) at 3' end of primer, position 16 (printed G*)
As for B2, the binding result in data set [1] is given as “binds”.

B3: DNA16dd (dsDNA)
DNA 1: GCTCTGTTCCGGTTTG
DNA 2: B1 DNA 2
modifications: 2',3'-dideoxyG at 3' end of primer, position 16 (printed D*)
As for B3, the binding result in data set [1] was “binds”.
As to GCTCTGTTCCGGTTTG (ssDNA, 2',3'-dideoxyG at 3' end, position 16 (printed D*)) [DNA16ddss], in data set [2], the binding result is “binds”.
For the molecule GCTCTGTTCCGGTTTG (ssDNA, acyclovir monophosphate (acyclic G) at 3' end, position 16 (printed A*)) [DNA16ACVss], in data set [2], the binding result is on record as “binds”.

The record behind these values is publication PMC5551684.
